The values that follow come from patent US20170298146A1 (MODIQUEST B V, published 2017).

In assay [1] the target is T1, human recombinant histone H2A (human).
T1 construct: Non-deiminated
In words: ELISA, 0.00064 ug/well. How it is done: (§1) CFC-1 and CFC-0 were coated at the same concentration and served as positive and negative controls, respectively, for specific anti-citrulline reactivity and as coating controls. Non-coated wells were used to test for aspecific binding of the antibodies. […] Detection of bound anti-citrulline antibodies was performed by incubating the wells with rabbit-anti-human-HRP (1:2000) for one hour at RT followed by incubation with TMB substrate. The resulting OD (y-axis) is a measure for antibody binding. H1=recombinant histone 1; H1/p2=huPAD2 recombinant histone 1; H1/p4=huPAD4 recombinant histone 1 and so forth (x-axis).
(In general: ELISA stands for enzyme-linked immunosorbent assay.)

For assay [2], the target named is T2, huPAD2 deiminated human recombinant histone H2A (human).
T2 construct: also called H2A/p2
In words: ELISA, 0.00064 ug/well. How it is done:
as §1

The target of assay [3] is T3, huPAD4 deiminated human recombinant histone H2A (human).
T3 construct: also called H2A/p4; huPAD4 deiminated histone 2A
Briefly: ELISA, 0.00064 ug/well. How it is done:
as §1

The target in assay [4] is T4, huPAD2 deiminated human recombinant histone H2B (human).
T4 construct: also called H2B/p2
In words: ELISA, 0.00064 ug/well. The procedure: as §1

The target in assay [5] is human recombinant histone H4 (human, UniProt P62805 2-103). Briefly: ELISA, 0.00064 ug/well. The procedure:
as §1

The target in assay [6] is T5, CFC-1.
T5 construct: Positive control for anti-citrulline reactivity; also called cfc1 XG
In words: ELISA, 0.00064 ug/well. The procedure:
as §1

The target of assay [7] is T5, CFC-1. In words: peptide ELISA, 0.4 ug/well. The procedure: (§2) Biotin and citrulline-containing peptides derived from fibrinogen and vimentin were immobilized on NEUTRAVIDIN®-coated 96-well ELISA plates (0.3 μg/well). CFC-1 and CFC-0 were coated at the same concentration and served as positive and negative controls respectively for specific anti-citrulline reactivity and as coating controls. Non-coated wells were used to test for aspecific binding of the antibodies. […] Detection of bound anti-citrulline antibodies was performed by incubating the wells with rabbit-anti-human-HRP (1:2000) for one hour at RT followed by incubation with TMB substrate. The resulting OD (y-axis) is a measure for antibody binding.
(§3) Biotin-labeled and citrulline-containing fibrinogen and vimentin peptides (Table 5) were also tested for reactivity with the therapeutic antibodies. Peptides were coated on 96-well NEUTRAVIDIN®-ELISA plates.

For assay [8], the target named is T6, msFibα XH (mouse, X at position 15 is citrulline; biotin label).
T6 peptide: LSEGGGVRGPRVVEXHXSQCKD
In words: peptide ELISA, 0.4 ug/well. How it is done: as §2, §3

Assay [9] concerns the target T7, msFibα XG (mouse, X at position 8 is citrulline; biotin label).
T7 peptide: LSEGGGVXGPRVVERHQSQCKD
Briefly: peptide ELISA, 0.4 ug/well. The procedure: as §2, §3

The target in assay [10] is T8, huFibα XH (human, X at position 15 is citrulline; biotin label).
T8 peptide: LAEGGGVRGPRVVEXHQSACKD
Briefly: peptide ELISA, 0.4 ug/well. How it is done: as §2, §3

The target in assay [11] is T9, huFibα XG (human, X at position 8 is citrulline; biotin label).
T9 peptide: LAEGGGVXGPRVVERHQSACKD
In words: peptide ELISA, 0.4 ug/well. How it is done: as §2, §3

For assay [12], the target named is T10, msFibβ XG (mouse, also: biotin label).
T10 peptide: EPTDSLDA[Cit]GHRPVDRR
In words: peptide ELISA, 0.4 ug/well. How it is done: as §2, §3

Assay [13] addresses T11, msVim XS/XL (mouse, also: biotin label).
T11 construct: also called mouse vimentin peptide
T11 peptide: YVT[Cit]SSAV[Cit]L[Cit]SSVP
Briefly: peptide ELISA, 0.4 ug/well. How it is done:
as §2, §3

The target of assay [14] is T12, Histone 2A citrulline-containing peptide 7 (human, also: biotin label).
T12 peptide: GNYSE[Cit]VGAGAP
Briefly: peptide ELISA, 0.00064 ug/well. How it is done:
as §2, with “histone 2A” for “fibrinogen and vimentin”
(§4) Ninety-six-well ELISA plates were coated with NEUTRAVIDIN® (0.1 μg/well) by overnight incubation at 4° C. Wells were washed five times with PBS-TWEEN®-20 (PBS-T) and blocked by a one-hour incubation with PBS-T+1% Bovine serum albumin (BSA) at room temperature (RT). After five more washes with PBS-T, wells were incubated for one hour at RT with histone-derived citrulline and biotin-containing peptides (0.3 μg/well). […] Wells were washed five times with PBS-T and incubated with rabbit-anti-human-HRP (1:2000) for one hour at RT followed by five washes with PBS-T and three wash steps with PBS. Wells were incubated for five minutes with TMB substrate before stopping the reaction with 2 M H₂SO₄. Optical density was measured by 450 nm and is a measure for the affinity of the antibodies used.

In assay [15] the target is T13, Histone 2A citrulline-containing peptide 8 (human, also: biotin label).
T13 peptide: AGNAA[Cit]DNKKTR
In words: peptide ELISA, 0.00064 ug/well. How it is done:
as §2, with “histone 2A” for “fibrinogen and vimentin”
as §4

Assay [16] concerns the target T14, Histone 2A citrulline-containing peptide 9 (human, also: biotin label).
T14 peptide: DNKKT[Cit]IIPRHL
In words: peptide ELISA, 0.00064 ug/well. How it is done:
as §2, with “histone 2A” for “fibrinogen and vimentin”
as §4

Assay [17] addresses T5, CFC-1. Briefly: peptide ELISA, 0.00064 ug/well. The procedure:
as §2, §3

Assay [18] addresses T6, msFibα XH. Briefly: peptide ELISA, 0.00064 ug/well. The procedure:
as §2, §3

Assay [19] deals with T7, msFibα XG. In words: peptide ELISA, 0.00064 ug/well. How it is done: as §2, §3
Assay [20] addresses T8, huFibα XH. In words: peptide ELISA, 0.00064 ug/well. The procedure:
as §2, §3

Assay [21] deals with T9, huFibα XG. In words: peptide ELISA, 0.00064 ug/well. The procedure: as §2, §3
Assay [22] concerns the target T10, msFibβ XG. In words: peptide ELISA, 0.00064 ug/well. How it is done: as §2, §3
Assay [23] addresses T11, msVim XS/XL. In words: peptide ELISA, 0.00064 ug/well. How it is done: as §2, §3

Non-standard residues stand in square brackets, D forms with d. No end group written: not given here. Cit = NC(=O)NCCC[C@H](N)C(=O)O

B1: RhmAb2.102 (antibody, human IgG1, lambda)
heavy: not shown
light: QSVLTQPPSMSAAPGQKVTISCSGSSSNIGNNYVSWYQQVPGTAPKLLIYDDNKRPSGIPGRFSGSKSATSATLGITGLQAGDEADYYCGSWDDNLSVVLFGGGTKLTVLGQPKAAPSVTLFPPSSEELQANKATLVCLISDFYPGAVTVAWKADSSPVKAGVETTTPSKQSNNKYAASSYLSLTPEQWKSHRSYSCQVTHEGSTVEKTVAPTECS
notes: Human IgG1 lambda; also called Rhm2.102
With B1, the OD in [1] worked out at 0.057 OD; in assay [2], 0.077 OD; in assay [3], 0.075 OD; in assay [4] it was 0.052 OD; in assay [5], 0.06 OD; with CFC-1 [6], 0.077 OD. For the same molecule, the OD in the assay with CFC-1 [7] worked out at 3.79 OD; in the assay with msFibα XH [8], 0.076 OD; in the assay with msFibα XG [9] it was 0.773 OD; with huFibα XH [10], 0.09 OD; with huFibα XG [11] it was 0.521 OD; in the assay with msFibβ XG [12], 1.67 OD. In addition, the OD with msVim XS/XL [13] turned out to be 1.45 OD; in assay [14], 0.057 OD; in [15], 0.057 OD; in assay [16], 0.059 OD; with CFC-1 [17] it was 0.345 OD; with msFibα XH [18] it was 0.088 OD. For the same molecule, the OD in the assay with msFibα XG [19] was 0.116 OD; with huFibα XH [20], 0.124 OD; with huFibα XG [21] it was 0.125 OD; in the assay with msFibβ XG [22], 0.133 OD; with msVim XS/XL [23], 0.154 OD.
